The values below come from US20240262910A1 (Memorial Sloan Kettering, published 2024).

For test [1], the target named is T1, human CD33, full length, on cells (human, UniProt P20138 18-364).
T1 construct: NIH-3T3 cells stably overexpressing full-length human CD33, or AML lines U937 and Set2 with endogenous CD33; the cell line is named under assay; also called 3T3-huCD33; 3T3-CD33
Put plainly: flow cytometry, U937 cells. As for the experimental part:
(§1) Binding to CD33 on Cells. To assess the binding of TDI-Y-006, TDI-Y-007 and 1J19 to cell surface-bound CD33, 3T3 cells overexpressing CD33, as well as the U937 AML cell line, which expresses endogenous CD33, were used. U937 CD33KO or NALM6 were included as negative controls. Briefly, NALM6, U937 CD33+ and KO cells were blocked with human IgG Fc for 20 minutes on ice. The recombinant antibodies were then serially diluted starting at 100 μg/mL concentration and added for 30 minutes on ice. AlexaFluor 647-conjugated goat anti-human F(ab′)2 was added to cells for 30 minutes on ice, washed and analyzed by flow cytometry, normalized to secondary only staining (MFI ratio). EC50 values were determined by non-linear regression.
For orientation: Flow cytometry measures light scatter and fluorescence of single cells or particles in a stream.

For test [2], the target named is T1, human CD33, full length, on cells. Put plainly: flow cytometry, 3T3-CD33 cells. The procedure: as §1
Test [3] has as its target T2, human CD33 extracellular domain with 6xHis-tag (human, UniProt P20138 18-259).
T2 construct: Bought (R&D Systems, Acro Biosystems); also called huCD33-His; huCD33(ECD)-His
Put plainly: BLI, huCD33-His on anti-penta-His sensor, no competitor. As for the experimental part: Epitope Binning. Epitope binning was carried out by a BLI competition experiment using an Octet Red96e. Human CD33-His was captured by an anti-penta-His biosensor. A 4×4 matrix with TDI-Y-006, TDI-Y-007, 1J19 and H195 was tested. A reference biosensor was used to determine the overall capture level for each antibody. After pre-binding the antibodies at saturation levels, the biosensors were dipped into antibody solutions to assess competition. […] However, when TDI-Y-006 was pre-bound, binding of TDI-Y-007 was blocked. […] Similarly, 1J19 and H195 have epitopes that partially overlap. No competition was observed between antibodies binding to the membrane-proximal IgC2 domain (TDI-Y-006 and TDI-Y-007) and antibodies binding to the membrane-distal IgV domain (1J19 and H195).
(In general: Biolayer interferometry detects binding as a change in optical thickness at a sensor tip.)

Test [4] concerns the target T2, human CD33 extracellular domain with …. Put plainly: BLI (Octet Red96e), antibody on anti-huFc sensor, huCD33-His as analyte, 1:1 fit. As for the experimental part: (§2) The binding affinity to human CD33 protein was measured by biolayer interferometry (BLI) using an Octet Red96e. All experiments were carried out using kinetic buffer (PBS pH 7.4, 0.01% BSA, 0.002% Tween-20). The antibodies were captured by an anti-huFc biosensor and a 7-point, 2-fold dilution series of huCD33-His was used as analyte. The data was processed by double reference subtraction, and response curves were globally fit to a 1:1 Langmuir binding model. […] The binding affinities are similar to the H195 reference antibody.

In test [5] the target is T1, human CD33, full length, on cells. Put plainly: summary table; flow cytometry, AML cell line U937; U937 AML cell line (endogenous CD33). As for the experimental part:
as §1

For test [6] the target is unchanged. Put plainly: summary table; flow cytometry, 3T3 cells overexpressing CD33; 3T3 cells overexpressing CD33. As for the experimental part:
as §1

The target in test [7] is T3, mouse CD33 extracellular domain with 6xHis-tag (mouse, UniProt Q63994 18-240).
T3 construct: range 18-240; also called moCD33-His; moCD33(ECD)-His
T3 sequence: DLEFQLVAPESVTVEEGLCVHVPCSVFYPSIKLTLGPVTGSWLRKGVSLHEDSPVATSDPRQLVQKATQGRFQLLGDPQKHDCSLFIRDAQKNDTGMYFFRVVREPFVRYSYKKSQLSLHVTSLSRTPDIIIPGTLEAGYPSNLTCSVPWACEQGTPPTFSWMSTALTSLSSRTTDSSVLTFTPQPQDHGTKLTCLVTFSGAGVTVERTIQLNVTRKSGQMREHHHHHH
Put plainly: ELISA: CD33-His protein at 5 µg/mL captured on Ni-NTA plate, antibody at 10 µg/mL in triplicate, HRP anti-human Fc detection, OD450. As for the experimental part: Binding to Recombinant CD33 Protein. Binding to CD33 protein was carried out by ELISA using human CD33-His (full-length or IgC2 domain), cynomolgus monkey CD33-His and mouse CD33-His. Recombinant proteins at 5 μg/mL were captured by pre-blocked Ni-NTA plates. Candidate antibodies were added at 10 μg/mL in triplicate and detected using horseradish peroxidase (HRP)-conjugated anti-human Fc antibody. […] No binding was detected to cynomolgus or mouse CD33 for either TDI-Y-006 and TDI-Y-007. 1J19 and H195 only bound to full-length human CD33 ECD but not to IgC2 as these antibodies target the IgV domain.

The target in test [8] is T1, human CD33, full length, on cells. Put plainly: flow cytometry on 3T3 cells overexpressing human CD33, antibody titration, AlexaFluor 647 goat anti-human F(ab')2 detection, MFI ratio to secondary only. The procedure:
as §1

Test [9] has as its target T2, human CD33 extracellular domain with …. Put plainly: ELISA, hybridoma supernatant.
Test [10] deals with T4, human CD33 IgC2 type domain with 6xHis-tag (human, UniProt P20138 140-259).
T4 construct: Produced at LakePharma; also called huCD33IgC2-His; CD33 IgC2-6xHis
T4 sequence (P20138 other isoform, or with tags, fused parts or gaps): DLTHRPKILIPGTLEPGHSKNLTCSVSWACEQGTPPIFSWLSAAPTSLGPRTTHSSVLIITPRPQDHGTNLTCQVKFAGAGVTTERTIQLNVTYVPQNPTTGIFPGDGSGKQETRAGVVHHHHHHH
Put plainly: ELISA, hybridoma supernatant. (ELISA stands for enzyme-linked immunosorbent assay.)

In test [11] the target is T1, human CD33, full length, on cells. Put plainly: flow cytometry, purified mAb, Set2 cells.
The target is the same in test [12]. Put plainly: flow cytometry, purified mAb, U937 cells.
Test [13] shares this target. Put plainly: flow cytometry, hybridoma supernatant, U937 cells.
For test [14] the target is unchanged. Put plainly: flow cytometry, hybridoma supernatant, 3T3-huCD33 cells.
Test [15] deals with T5, human CD33 IgC2 domain only, on NIH-3T3 cells (human, UniProt P20138 140-364).
T5 construct: the whole entry is named here; also called 3T3-huCD33IgC2; 3T3 CD33-IgC2
T5 sequence (P20138 140-364 limits assumed): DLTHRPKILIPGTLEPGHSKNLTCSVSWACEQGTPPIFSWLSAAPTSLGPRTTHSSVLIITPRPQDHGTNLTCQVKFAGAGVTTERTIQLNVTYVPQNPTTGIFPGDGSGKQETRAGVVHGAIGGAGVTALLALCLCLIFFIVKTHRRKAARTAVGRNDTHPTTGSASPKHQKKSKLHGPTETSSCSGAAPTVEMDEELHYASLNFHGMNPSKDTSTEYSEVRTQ
Put plainly: flow cytometry, hybridoma supernatant, 3T3-huCD33IgC2 cells.

The target in test [16] is T3, mouse CD33 extracellular domain with …. Put plainly: ELISA on recombinant moCD33-His, purified hybridoma subclone antibody, readout RLU; antibody concentration not given.
For test [17], the target named is T2, human CD33 extracellular domain with …. Put plainly: summary table; binding affinity to soluble CD33 (BLI). The procedure:
as §2

Test [18] deals with T1, human CD33, full length, on cells. Put plainly: summary table; flow cytometry, 3T3 cells overexpressing CD33. The procedure: as §1

T2 sequence (P20138 other isoform, or with tags, fused parts or gaps): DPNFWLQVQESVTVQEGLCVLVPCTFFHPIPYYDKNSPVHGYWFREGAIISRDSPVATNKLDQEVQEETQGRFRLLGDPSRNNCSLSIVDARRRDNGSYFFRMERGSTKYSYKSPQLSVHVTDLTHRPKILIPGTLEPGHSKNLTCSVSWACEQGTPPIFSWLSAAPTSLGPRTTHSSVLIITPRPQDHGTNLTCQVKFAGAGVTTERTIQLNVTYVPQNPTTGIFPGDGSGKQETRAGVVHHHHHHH
T1 sequence (P20138 18-364): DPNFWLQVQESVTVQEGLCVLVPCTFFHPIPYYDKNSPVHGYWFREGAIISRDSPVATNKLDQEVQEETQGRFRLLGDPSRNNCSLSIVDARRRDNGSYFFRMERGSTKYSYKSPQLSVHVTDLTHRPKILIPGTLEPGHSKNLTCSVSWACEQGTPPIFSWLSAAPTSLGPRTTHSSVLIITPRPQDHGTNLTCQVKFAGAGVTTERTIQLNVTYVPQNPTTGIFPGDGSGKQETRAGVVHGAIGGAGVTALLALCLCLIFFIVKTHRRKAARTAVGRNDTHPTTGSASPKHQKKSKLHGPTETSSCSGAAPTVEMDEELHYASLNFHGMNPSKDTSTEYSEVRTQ

B1: TDI-Y-007 (antibody, V domains shown)
VH: EVHLLESGGGLVQPGGSLRLSCAASGFIFSSNAMSWVRQAPGKGLEWVSAISGYGGNTYYADSVKGRFTISRDNSKNTLYLQMNSLRAEDTAVYYCAKWGTYIVGATGDYWGQGTLVTVSS
VL: QSALTQPPSASGSPGQSVTISCTGTSNDVGGYNYVSWYQQHPGKAPKLLIYEVSKRPSGVPDRFSGSQSGNTASLTVSGLQAEDEADYYCSSYAGSNNWVFGGGTKLTVL
notes: also called 4B2 (recombinant, human IgG1 constant region)
Broadly, the EC50 is the concentration that produces a half-maximal response. What is called Kd is the constant that tells how readily two partners part at equilibrium. Broadly, the koff is a measure of how fast the partners let go of each other. A higher koff goes with a short-lived complex. A word on the kon: it is the rate constant with which the complex forms. The EC50 (read off the curve) is the midpoint of the concentration-response curve. Consider B1, for which the EC50 was 44.9 nM in test [1], 17 nM in test [2], 45 nM in test [5] and 17 nM in [6]. Besides, in test [3], the “BLI total binding capacity (Reference Biosensor)” value (“BLI total binding capacity” for short) stood at 0.299. For the same molecule, in [4], binding was characterised by a dissociation constant (Kd) of 1.29 nM. Moreover, the koff in test [4] was 0.000597 s⁻¹. The molecule also yielded a kon in test [4] of 464000 M⁻¹ s⁻¹. Moreover, in [7], the binding result is “no binding (tested: 10 µg/mL)”. In [8], the “EC50 (read off the curve)” value is about 40 nM.

B2: 4-B2 (hybridoma antibody) (antibody, V domains shown)
VH: EVHLLESGGGLVQPGGSLRLSCAASGFIFSSNAMSWVRQAPGKGLEWVSAISGYGGNTYYADSVKGRFTISRDNSKNTLYLQMNSLRAEDTAVYYCAKWGTYIVGATGDYWGQGTLVTVSS
VL: QSALTQPPSASGSPGQSVTISCTGTSNDVGGYNYVSWYQQHPGKAPKLLIYEVSKRPSGVPDRFSGSQSGNTASLTVSGLQAEDEADYYCSSYAGSNNWVFGGGTKLTVL
notes: AlivaMab mouse hybridoma antibody; also called 4-B2-A
With B2, the figures for the RLU in test [9] and in test [10] were 392000 RLU and 101000 RLU, respectively. The half-maximal effective concentration (EC50) in test [11] came to 28.5 nM; in [12], 40.5 nM. Moreover, the MFI in test [13] is 152000 MFI; in [14] it was 2.82e+06 MFI; in test [15], 358000 MFI. Further, the binding result in test [16] was “no binding”.

B3: TDI-Y-006 (antibody, V domains shown)
VH: EVQLLESGGGLVQPGGSLRLSCAASGFTFSTYAMSWVRQAPGKGLEWVSAISGRGGSTYYTDSVKGRFTISRDNSKNTVSLQMNSLRAEDTAVYYCAGRGDYYYYYGMDVWGQGTTVTVSA
VL: DIVMTQSPLSSPVTLGQPASFSCRSSQSLVYSDGNTYLSWLQQRPGQPPRLLIYKISNRFSGVPDRFSGSGAGTDFTLKISRVEAEDVGVYYCMQSTQFPHTFGQGTKLEIK
notes: also called 3P14 (recombinant, human IgG1 constant region)
For the molecule B3, the EC50 came to 8.5 nM in [1], 5 nM in test [2], 5 nM in test [18] and 8.5 nM in test [5]. The values for the Kd in test [17] and in [4] were 1.2 nM and 1.21 nM, respectively. Also, the dissociation rate constant (koff) in [17] was 0.000359 s⁻¹. In addition, the association rate constant (kon) in test [17] and in test [4] was 296000 M⁻¹ s⁻¹ each time. For the same molecule, in test [3], the “BLI total binding capacity” value stood at 0.86. For the same molecule, in test [7], the binding result is recorded as “no binding (tested: 10 µg/mL)”. For the same molecule, the “EC50 (read off the curve)” value in test [8] was about 8 nM.

B4: 3-P14 (hybridoma antibody) (antibody, V domains shown)
VH: EVQLLESGGGLVQPGGSLRLSCAASGFTFSTYAMSWVRQAPGKGLEWVSAISGRGGSTYYTDSVKGRFTISRDNSKNTVSLQMNSLRAEDTAVYYCAGRGDYYYYYGMDVWGQGTTVTVSA
VL: DIVMTQSPLSSPVTLGQPASFSCRSSQSLVYSDGNTYLSWLQQRPGQPPRLLIYKISNRFSGVPDRFSGSGAGTDFTLKISRVEAEDVGVYYCMQSTQFPHTFGQGTKLEIK
notes: AlivaMab mouse hybridoma antibody; also called 3-P14-A
On to B4, for which the RLU was found to be 546000 RLU in test [9] and 107000 RLU in test [10]. The results for the EC50 in test [11] and in test [12] were 2.4 nM and 3.27 nM, respectively. The MFI in test [13] is 248000 MFI; in [14], 3.06e+06 MFI; in test [15], 544000 MFI.

B5: 4-P3 (antibody, V domains shown)
VH: EVQLLESGGGLVQPGGSLRLSCAASGFTFSTYAMSWVRQAPGKGLEWVSAISGRGGSTYYTDSVKGRFTISRDNSKNTVSLQMNSLRAEDTAVYYCAGRGDYYYYYGMDVWGQGTTVTVSA
VL: DIVMTQSPLSSPVTLGQPASISCRSSQSLVYSDGNTYLSWLQQRPGQPPRLLIYKISNRFSGVPDRFSGSGAGTDFTLKISRVEAEDVGVYYCMQSTQFPHTFGQGTKLEIK
notes: AlivaMab mouse hybridoma antibody; also called 4-P3-A
In the case of B5, in [9], the RLU came to 484000 RLU. The values for the EC50 in test [11] and in [12] were 2 nM and 2.5 nM, respectively. Besides, the MFI in test [13] came out at 188000 MFI; in test [14] it was 1.32e+06 MFI; in [15], 391000 MFI. For the same molecule, the binding result in [16] is “no binding”.

B6: 1J19 (recombinant, human IgG1 constant region) (antibody, V domains shown)
VH: QVQLQQSGPGLVKPSQTLSLTCAISGDSVSSNSAAWNWIRQSPSRGLEWLGRTYFRSKWYNVYAVSVKSRITINPDTSKNQFSLQLNSVTPEDTAVYYCASEGGSYYDHWGQGTLVTVSS
VL: DIQMTQSPSSVSASVGDRVTITCRASQGISNWLTWYQQKPGKAPKLLIYAASSLQSGVPSRFSGSGSGTDFTLTISSLQPEDFATYYCQQADSFPFTFGPGTKVDIK
Molecule B6 yielded a concentration giving a half-maximal response (EC50) in test [1] of 2.16 nM. In test [2], the half-maximal effective concentration (EC50) came out at 6.54 nM. Besides, in [3], the “BLI total binding capacity” value was determined as 0.432. In test [4], this molecule registered a Kd of 1.1 nM and an association rate constant (kon) of 266000 M⁻¹ s⁻¹. For the same molecule, the “EC50 (read off the curve)” value in test [8] is about 4 nM.
